Four molecules from publication PMC8659124, “Structural Analysis of Saccharomyces cerevisiae Dihydroorotase Reveals Molecular Insights into the Tetramerization Mechanism” (Molecules, 2021) can be followed below.

Data set [1] addresses DHOase domain of human CAD (human). Description: cross-linking; glutaraldehyde 1%, individual DHOase 3 uM, 4 C, 20 min; Coomassie Blue-stained SDS-PAGE.
In data set [2] the target is Klebsiella pneumonia DHOase (Klebsiella pneumonia). The description is as above.
Data set [3] concerns the molecule itself. The description is as above.
Data set [4] concerns the molecule itself. Nature of the data set: SEC; Superdex 200 prep grade, protein 10 mg/mL in 20 mM MES, 100 mM NaCl, pH 6.0, 0.5 mL/min; calibrated with proteins of known molecular weight. (SEC sorts molecules by how far they enter the pores of the column.)
Data set [5] concerns the molecule itself. Description: crystal structure; complex form I with malate, 16% PEG 4000, 100 mM imidazole-malate, pH 7.0, room temperature; PDB 6L0A, 1.79 A, space group P2(1), four molecules per asymmetric unit.
Data set [6] concerns the molecule itself. Description: cross-linking; glutaraldehyde 0.5%, DHOase 3 uM, 4 C, 20 min; Coomassie Blue-stained SDS-PAGE.

Where “and” joins values, the source holds several entries; their conditions need not be identical. Equal values may be shown once.

In the case of “DHOase domain of human CAD (domain or fragment)”, the stoichiometry N (usually the number of molecules, sites or subunits per partner or assembly) in data set [1] was 2. The molecule Klebsiella pneumonia DHOase (enzyme) gave a stoichiometry N in data set [2] of 2.

B1: Salmonella enterica serovar Typhimurium LT2 DHOase (enzyme, UniProt P06204 1-348, looked up)
chain: MTAPSQVLKIRRPDDWHVHLRDGDMLKTVVPYTSEIYGRAIVMPNLASPITTVDAAIAYRQRILDAVPAGHDFTPLMTCYLTDSLDADELERGFHEGVFTAAKLYPANATTNSSHGVTSVDAIMPVLERMEKLGIPLLVHGEVTHADVDIFDREARFIDTVMEPLRQRLTALKVVFEHITTKDAAQYVRDGNDYLAATITPQHLMFNRNDMLVGGIRPHLYCLPILKRNIHQQALRELVASGFTRAFLGTDSAPHSRHRKETSCGCAGCFNAPSALGSYAAVFEEMNALAHFEAFCSLNGPQFYGLPMNTGWVELVRDEQQIPGNIALADDSLVPFLAGETVRWSVKK
notes: Dihydroorotase of Salmonella enterica serovar Typhimurium LT2; also called StDHOase
As for B1, in data set [3], the “stoichiometry N” value amounted to 2.

B2: Saccharomyces cerevisiae dihydroorotase (enzyme)
chain: MVQEIDLGLTCDMHVHVREGAMCELVTPKIRDGGVSIAYIMPNLQPPITTLDRVIEYKKTLQKLAPKTTFLMSFYLSKDLTPDLIHEAAQQHAIRGVKCYPAGVTTNSAAGVDPNDFSAFYPIFKAMQEENLVLNLHGEKPSVHDGDKEPIHVLNAEEAFLPALKKLHNDFPNLKIILEHCTSESAIKTIEDINKNVKKATDVKVAATLTAHHLFLTIDDWAGNPVNFCKPVAKLPNDKKALVKAAVSGKPYFFFGSDSAPHPVQNKANYEGVCAGVYSQSFAIPYIAQVFEEQNALENLKGFVSDFGISFYEVKDSEVASSDKAILFKKEQVIPQVISDGKDISIIPFKAGDKLSWSVRWEPR
modifications: carbamylated lysine (Kcx) at 98
notes: Dihydroorotase of Saccharomyces cerevisiae, the monofunctional DHOase encoded by an independent gene; monomer about 40 kDa; Two Zn ions and malate in the active site of each subunit in the crystals; also called ScDHOase; DHOase
Take B2: the “stoichiometry N” value was ~2 and ~4.1 in data set [4]; 4 in data set [5]; 2 in data set [6].
